Test results as given in US10925971B2, “Methods of treating PRLR positive breast cancer” (Regeneron Pharmaceuticals, Inc., priority 2016, dated 2021).
Where two headings read alike, the source gives them in different places.

T1: mouse PRLR on HEK293/mPRLR cells (Mus musculus, UniProt Q08501)
T1 construct: HA; expressed in transfected cells; host or cells: HEK293
T1 sequence (Q08501 20-608): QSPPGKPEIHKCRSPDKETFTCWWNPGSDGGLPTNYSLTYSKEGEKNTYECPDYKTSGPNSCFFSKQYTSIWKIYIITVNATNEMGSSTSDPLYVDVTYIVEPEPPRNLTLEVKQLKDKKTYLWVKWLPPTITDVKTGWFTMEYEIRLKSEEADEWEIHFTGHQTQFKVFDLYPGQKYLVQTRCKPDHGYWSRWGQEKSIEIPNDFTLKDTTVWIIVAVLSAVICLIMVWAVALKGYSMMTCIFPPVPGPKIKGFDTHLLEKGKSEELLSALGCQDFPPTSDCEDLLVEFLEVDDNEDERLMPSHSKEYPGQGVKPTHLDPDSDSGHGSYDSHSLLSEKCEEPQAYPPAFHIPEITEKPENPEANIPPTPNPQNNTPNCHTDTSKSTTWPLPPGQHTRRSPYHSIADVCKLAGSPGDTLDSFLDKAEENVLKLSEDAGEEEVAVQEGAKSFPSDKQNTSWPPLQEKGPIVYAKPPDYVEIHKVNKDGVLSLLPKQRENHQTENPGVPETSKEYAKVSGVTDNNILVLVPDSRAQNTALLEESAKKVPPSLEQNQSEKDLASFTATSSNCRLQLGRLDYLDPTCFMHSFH


Key:
HEK293 parental cells = assay: FACS cell surface binding; design: species or system human
In short: (§1)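 Values are mean fluorescence intensity relative to an isotype control (background). Antibodies at 10 μg/ml were incubated on ice for 30 min with HEK293 lines stably overexpressing HA-tagged species PRLR or with parental cells. A PE-conjugated anti-human secondary was used for detection.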

[1] = tested on: Macaca fascicularis PRLR (mfPRLR.mmh; SEQ ID NO:403); assay: Surface plasmon resonance (Biacore T200), antibody-capture format; format: binding; details: analyte mfPRLR.mmh
Sequence of Macaca fascicularis PRLR (mfPRLR.mmh; SEQ ID NO:403) (as listed by the source): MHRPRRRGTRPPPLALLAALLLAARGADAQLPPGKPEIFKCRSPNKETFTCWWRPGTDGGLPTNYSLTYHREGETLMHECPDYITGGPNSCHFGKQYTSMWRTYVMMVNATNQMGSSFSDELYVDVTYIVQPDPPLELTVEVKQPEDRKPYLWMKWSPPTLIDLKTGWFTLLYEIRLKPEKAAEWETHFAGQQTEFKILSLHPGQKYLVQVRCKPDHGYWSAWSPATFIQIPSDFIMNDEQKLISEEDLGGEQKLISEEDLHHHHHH
In short: (§2)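 Antibodies (human IgG1 Fc) captured on an anti-human Fc sensor surface; soluble monomeric (.mmh) or dimeric (.mFc) PRLR injected as analyte. ka and kd obtained by fitting to a 1:1 binding model.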

[2] = target: T2, monomeric human PRLR (hPRLR.mmh; SEQ ID NO:401) (Homo sapiens, UniProt P16471); assay: as above; format: binding; details: analyte hPRLR.mmh
T2 construct: soluble monomeric (hPRLR.mmh); mmh (myc-myc-hexahistidine) (C)
T2 sequence (P16471 with tags, fused parts or gaps): as the sequence (as listed by the source) above, with V105I, T139A, M154I, T187I, I236T counted along it
In short: as §2

[3] = target: T3, dimeric human PRLR (hPRLR.mFc; SEQ ID NO:402) (Homo sapiens, UniProt P16471); assay: as above; format: binding; details: analyte hPRLR.mFc
T3 construct: dimeric (hPRLR.mFc)
T3 sequence (P16471 with tags, fused parts or gaps): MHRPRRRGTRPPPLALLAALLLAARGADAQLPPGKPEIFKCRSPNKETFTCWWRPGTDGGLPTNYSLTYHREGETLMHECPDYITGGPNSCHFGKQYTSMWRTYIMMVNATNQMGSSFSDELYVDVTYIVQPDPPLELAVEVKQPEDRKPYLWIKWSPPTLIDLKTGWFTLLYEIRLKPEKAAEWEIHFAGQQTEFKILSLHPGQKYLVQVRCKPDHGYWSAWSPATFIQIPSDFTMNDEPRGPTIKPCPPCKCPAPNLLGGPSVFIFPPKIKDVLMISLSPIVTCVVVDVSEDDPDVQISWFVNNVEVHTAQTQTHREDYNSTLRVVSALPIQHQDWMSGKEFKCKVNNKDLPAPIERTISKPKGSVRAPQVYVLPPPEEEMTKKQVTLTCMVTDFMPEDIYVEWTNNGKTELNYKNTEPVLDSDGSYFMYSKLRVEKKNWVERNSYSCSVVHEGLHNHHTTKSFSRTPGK
In short: as §2

T47D#11 tumors = format: in vivo, CB17 SCID mice; details: for Average Tumor Growth Inhibition (%) / Final Tumor size mm^3 (mean ± SEM): T47D#11 tumors, SCID mice, Day 66
Excerpt: Briefly, 20×10^6 MCF7/PRLR cells (ATCC HTB-22 transfected with full length hPRLR as previously described) were implanted subcutaneously into the left mammary fat pad of female NCr nude mice. In other studies, 10×10^6 PC3/PRLR (ATCC CRL-1435 transfected with full length hPRLR as previously described) were implanted subcutaneously into the left flank of male SCID mice. Additionally, 10×10^6 parental T47D (ATCC HTB-133) or 7.5×10^10 T47D #11 cells (ATCC HTB-133 serially passaged in vivo as described below) were subcutaneously implanted into the left flank of female CB17 SCID mice. All mice were obtained from Taconic (Hudson, N.Y.). Each bolus of cells was supplemented with a 90-day estrogen release pellet (1.7 mg/pellet; Innovative Research America, Sarasota Fla.). […] Control reagents included PBS vehicle, free methyl-disulfide DM1 (DM1-SMe) and isotype Control 1-DM1.
In multi-dose studies, mice were dosed once a week for a total of three weeks with tumor volumes and body weights being monitored twice weekly throughout the study. Test ADCs were dosed at 5 and/or 15 mg/kg in the multi-dose studies. In single-dose studies, mice received a single dose of test ADC, and tumor volumes and body weights were monitored twice weekly throughout the study. Test ADCs were dosed at 1, 2.5, 5, and 15 mg/kg in the single-dose studies. Average tumor size as well as tumor growth inhibition relative to the vehicle treated group were calculated for each group. Tumors were measured with calipers twice a week until the average size of the vehicle group reached 1000 mm^3. Tumor size was calculated using the formula (length×width^2)/2. Tumor growth inhibition was calculated according to the following formula: (1−((Tfinal−Tinitial)/(Cfinal−Cinitial)))*100, where T (treated group) and C (control group) represent the mean tumor mass on the day the vehicle group reached 1000 mm^3. […] Results are summarized in Tables 21-25 (multi-dose) and Table 26 (single dose). (NT=not tested in the particular experiment shown).

[4] = target: T1, mouse PRLR on HEK293/mPRLR cells; assay: FACS cell surface binding
In short: as §1

Molecule | FACS Cell Binding (HEK293 parental cells) [Fold Above Background] | ka ([1]; 25° C.) [M/s] | kd ([1]; 25° C.) [s⁻¹] | ka ([1]; 37° C.) [M/s] | kd ([1]; 37° C.) [s⁻¹] | ka ([2]; 25° C.) [M/s] | kd ([2]; 25° C.) [s⁻¹] | ka ([2]; 37° C.) [M/s] | kd ([2]; 37° C.) [s⁻¹] | ka ([3]; 25° C.) [M/s] | kd ([3]; 25° C.) [s⁻¹] | ka ([3]; 37° C.) [M/s] | kd ([3]; 37° C.) [s⁻¹] | Average Tumor Growth Inhibition (%) (T47D#11 tumors; multi-dose 15 mg/kg) | Final Tumor size mm^3 (mean ± SEM) (T47D#11 tumors; multi-dose 15 mg/kg) [mm^3] | FACS Cell Binding [4] [Fold Above Background] | Average Tumor Growth Inhibition (%) (T47D#11 tumors; multi-dose 5 mg/kg) | Final Tumor size mm^3 (mean ± SEM) (T47D#11 tumors; multi-dose 5 mg/kg) [mm^3] | T47D #11 tumor growth (T47D#11 tumors; repeat dosing 5 and 15 mg/kg)
H1H6765P: fully human anti-PRLR antibody, human IgG1 Fc; HCVR/LCVR SEQ ID NOs 18/26 (antibody, V domains shown) VH: EVQLVESGGGVVRPGGSLRLSCVGSGFSFDDHGMNWVRQGPGKGLEWVSGFNWNGGSTNYAESVKGRFTISRDNARNSLFLQMNSLRAEDTALYYCVRGRSGWFNDAFDVWGPGTMVTVSS VL: EIVLTQSPGTLSLSPGERATLSCRASQTINSNYLAWYRQKPGQTPRLLIYGTSSRATGIPDRFSGSGSGTDFSLTISRLEPEDFAVFYCQQYAGLPTFGPGTKVDIK | 2 | 527000 | 0.000134 | 1.06e+06 | 5.37e-05 | 907000 | 0.000113 | 1.25e+06 | 0.000366 | 869000 | 3.41e-05 | 801000 | 0.000103 | −3 | 1278 ± 164 | 1 |  |  | 
H1H6782P: fully human anti-PRLR antibody, non-blocking; HCVR/LCVR SEQ ID NOs 66/74 (antibody, V domains shown) VH: EVQLVESGGGLVQPGRSLRLSCAASGFTFDDYAMHWVRQAPGKGLEWVSGIIWNSGHIGYGDSVKGRFTISRDNAKKSLYLQMNSLRAEDTALYYCARDSGRYQSYFDYWGQGTLVTVSS VL: DIQMTQSPSTLSASVGDRVTITCRASHIISSWLAWYQQKPGKAPKVLIFKASSLESGVPSRFSGSGSGTEFTLTISSLQPDDFATYYCQQYNTYSRTFGQGTKVEIK | 3 | 266000 | 0.000279 | 385000 | 0.000767 | 360000 | 0.000247 | 557000 | 0.000716 | 317000 | 7.13e-05 | 598000 | 0.00013 | −29 | 1537 ± 111 | 4 |  |  | 
H1H6958N2-DM1: anti-PRLR antibody H1H6958N2 conjugated to the maytansinoid DM1 through an SMCC linker (conjugate) VH: QVQLVESGGGVVQPGRSLRLSCGASGFTFRNYGMQWVRQGPGKGLEWVTLISFDGNDKYYADSVKGRFTISRDNSKNTLFLQMNSLRTEDTAVYYCARGGDFDYWGQGTLVTVSS VL: DIQMTQSPSSLSASVGDRVTITCRASQDIRKDLGWYQQKPGKAPKRLIYAASSLHSGVPSRFSGSGSGTEFTLTISSLQPEDFATYYCLQHNSYPMYTFGQGTKLEIK |  |  |  |  |  |  |  |  |  |  |  |  |  | 112 | 44 ± 5 |  | 102 | 168 ± 19 | potently inhibited tumor growth
H1H6958N2: anti-PRLR antibody, receptor blocking, human IgG1 Fc form of H2M6958N2 of Table 1; HCVR/LCVR SEQ ID NOs 290/298 (antibody, V domains shown) VH: QVQLVESGGGVVQPGRSLRLSCGASGFTFRNYGMQWVRQGPGKGLEWVTLISFDGNDKYYADSVKGRFTISRDNSKNTLFLQMNSLRTEDTAVYYCARGGDFDYWGQGTLVTVSS VL: DIQMTQSPSSLSASVGDRVTITCRASQDIRKDLGWYQQKPGKAPKRLIYAASSLHSGVPSRFSGSGSGTEFTLTISSLQPEDFATYYCLQHNSYPMYTFGQGTKLEIK | 1 | 195000 | 0.00028 | 328000 | 0.00134 | 233000 | 0.000272 | 413000 | 0.00131 | 422000 | 3.66e-05 | 829000 | 0.000139 | −3 | 1259 ± 122 | 1 |  |  | 
